Laboratory results reported in patent publication US7148338B2, “Nucleic acids encoding dipeptidyl peptidases” (The University of Sydney, priority 1999, dated 2006).

Experiments:
DPPIV = DPPIV (Homo sapiens, UniProt P27487); conditions: references [43,44]; cited from earlier work
DPP8 = target: T1, DPP8 (Homo sapiens, UniProt Q6V1X1); test: pH-dependence of DPP8 enzyme activity; format: biochemical
T1 construct: the full length DPP8 cDNA of 3.1 kb was cloned into the Xba I site of pcDNA3.1A/V5/His expression vector; expressed in transfected cells; host or cells: COS-7 (monkey kidney fibroblast) cells; clarified sonicated cell extract
Procedure: FIG. 7. DPP8 enzyme activity. (A) pH-dependence of DPP8 enzyme activity. (B) DPP8 and DPPIV enzyme kinetics. Means +/− SD of absorbance change per minute, multiplied by 1000 are shown. Curve fitting assumed Michaelis-Menten kinetics.
Enzyme assays were performed as described previously. Either clarified cell extract from 1×10^4 sonicated COS-7 cells or purified protein derived from 1×10^5 cells was incubated with substrate in 70 μL phosphate buffer, pH 7.4, for 30 min at 37° C., except where otherwise indicated. The specific DPPIV substrates, Gly-Pro-toluenesulfonate, H-Gly-Pro-p-nitroanilide (NA)/HCl (Sigma, St Louis, Mo., USA) and Gly-Pro-7-amino-4-trifluromethylcoumarin (Calbiochem, San Diego, Calif., USA) were tested. Other substrates tested were H-Ala-Pro-pNA/HCl, H-Arg-Pro-pNA acetate salt, H-Lys-Ala-pNA.2HCl, H-Asp-Pro-pNA, H-Ala-Ala-pNA/HCl, H-Ala-Ala-Pro-pNA/HCl, H-Ala-Ala-Phe-pNA, succinyl-Ala-Pro-pNA, H-Ala-Phe-Pro-pNA and Z-Ala-Pro-p-NA from Bachem (Switzerland). H-Ala-Pro-4-methoxyβNA/HCl, Z-Lys-Pro-4-methoxyβNAformate salt, H-Lys-Pro-4-methoxyβNA/HCl, Z-Ala-Pro-4-methoxyβNA, H-Gly-Pro-βNA and H-His-Ser-4-methoxyβNAacetate salt (Bachem) were tested for their ability to stain unfixed transfected cells. All inhibitors were (see Table 2) incubated with each purified enzyme in phosphate buffer, pH 7.4, for 15 min before the addition of substrate. […]

B1: DPPIV: dipeptidyl peptidase IV, comparator enzyme (protein)
chain: MKTPWKVLLGLLGAAALVTIITVPVVLLNKGTDDATADSRKTYTLTDYLKNTYRLKLYSLRWISDHEYLYKQENNILVFNAEYGNSSVFLENSTFDEFGHSINDYSISPDGQFILLEYNYVKQWRHSYTASYDIYDLNKRQLITEERIPNNTQWVTWSPVGHKLAYVWNNDIYVKIEPNLPSYRITWTGKEDIIYNGITDWVYEEEVFSAYSALWWSPNGTFLAYAQFNDTEVPLIEYSFYSDESLQYPKTVRVPYPKAGAVNPTVKFFVVNTDSLSSVTNATSIQITAPASMLIGDHYLCDVTWATQERISLQWLRRIQNYSVMDICDYDESSGRWNCLVARQHIEMSTTGWVGRFRPSEPHFTLDGNSFYKIISNEEGYRHICYFQIDKKDCTFITKGTWEVIGIEALTSDYLYYISNEYKGMPGGRNLYKIQLSDYTKVTCLSCELNPERCQYYSVSFSKEAKYYQLRCSGPGLPLYTLHSSVNDKGLRVLEDNSALDKMLQNVQMPSKKLDFIILNETKFWYQMILPPHFDKSKKYPLLLDVYAGPCSQKADTVFRLNWATYLASTENIIVASFDGRGSGYQGDKIMHAINRRLGTFEVEDQIEAARQFSKMGFVDNKRIAIWGWSYGGYVTSMVLGSGSGVFKCGIAVAPVSRWEYYDSVYTERYMGLPTPEDNLDHYRNSTVMSRAENFKQVEYLLIHGTADDNVHFQQSAQISKALVDVGVDFQAMWYTDEDHGIASSTAHQHIYTHMSHFIKQCFSLP
modifications: left off: small tags and cut ends
notes: dipeptidyl peptidase IV, comparator enzyme
- pH optimum of enzyme activity (DPPIV): 7.8

B2: DPP8: novel human dipeptidyl peptidase, amino acid sequence SEQ ID NO:1, 882 amino acids (protein, listed as Homo Sapiens)
chain: MAAAMETEQLGVEIFETADCEENIESQDRPKLEPFYVERYSWSQLKKLLADTRKYHGYMMAKAPHDFMFVKRNDPDGPHSDRIYYLAMSGENRENTLFYSEIPKTINRAAVLMLSWKPLLDLFQATLDYGMYSREEELLRERKRIGTVGIASYDYHQGSGTFLFQAGSGIYHVKDGGPQGFTQQPLRPNLVETSCPNIRMDPKLCPADPDWIAFIHSNDIWISNIVTREERRLTYVHNELANMEEDARSAGVATFVLQEEFDRYSGYWWCPKAETTPSGGKILRILYEENDESEVEIIHVTSPMLETRRADSFRYPKTGTANPKVTFKMSEIMIDAEGRIIDVIDKELIQPFEILFEGVEYIARAGWTPEGKYAWSILLDRSQTRLQIVLISPELFIPVEDDVMERQRLIESVPDSVTPLIIYEETTDIWINIHDIFHVFPQSHEEEIEFIFASECKTGFRHLYKITSILKESKYKRSSGGLPAPSDFKCPIKEEIAITSGEWEVLGRHGSNIQVDEVRRLVYFEGTKDSPLEHHLYVVSYVNPGEVTRLTDRGYSHSCCISQHCDFFISKYSNQKNPHCVSLYKLSSPEDDPTCKTKEFWATILDSAGPLPDYTPPEIFSFESTTGFTLYGMLYKPHDLQPGKKYPTVLFIYGGPQVQLVNNRFKGVKYFRLNTLASLGYVVVVIDNRGSCHRGLKFEGAFKYKMGQIEIDDQVEGLQYLASRYDFIDLDRVGIHGWSYGGYLSLMALMQRSDIFRVAIAGAPVTLWIFYDTGYTERYMGHPDQNEQGYYLGSVAMQAEKFPSEPNRLLLLHGFLDENVHFAHTSILLSFLVRAGKPYDLQIYPQERHSIRVPESGEHYELHLLHYLQENLGSRIAALKVI
- pH optimum of enzyme activity (DPP8): 7.4
